Side chains are listed from the residue outwards. Ends that are not written are not given here. dC16 = not defined here
Biological target: the molecule itself
Test: UV-vis heme titration; reports an intact 4-helix bundle (self-association)

B1: dC16-BB-P2K conjugate 8 (designed binder)
peptide: dC16-GGGEIWKLHEEFLC([maleimide-PEG 2000 Da])KFEELLKLHEERLKKM
modifications: reading uncertain
notes: also called BB-dC16-P2K; H10H24-dC16-PEG2K
binding result: binds
